Substitutions are numbered along the chain they refer to. Where “and” joins values, the source holds several entries; their conditions need not be identical. Equal values may be shown once.
Tests used:
[1] = target: human CD127 ECD (human) (UniProt P16871); assay: SPR, BIAcore 3000; antibody captured on anti-human IgG (Fc), CD127 ECD 16-512 nM as analyte, 1:1 Langmuir fit
[2] = target: IL7R (analyte of the CDRH3 variant assays) (Homo sapiens (Human)) (UniProt P16871); assay: SPR competition, BIAcore; IL7R 64 nM pre-incubated 3 h with antibody 0.25-256 nM, run over immobilised IL7 (competitor); run 2
[3] = target: IL7R (analyte of the CDRH3 variant assays) (Homo sapiens (Human)) (UniProt P16871); assay: SPR competition, BIAcore; IL7R 64 nM pre-incubated 3 h with antibody 1-256 nM, run over immobilised IL7 (competitor); run 1
[4] = target: IL7R (analyte of the CDRH3 variant assays) (Homo sapiens (Human)) (UniProt P16871); assay: SPR, BIAcore 3000; antibody captured on anti-human IgG (CM5), IL7R 1-64 nM as analyte, 1:1 fit, 25 C
[5] = target: IL7R (analyte of the CDRH3 variant assays) (Homo sapiens (Human)) (UniProt P16871); assay: SPR, BIAcore T100; antibody captured on anti-human IgG (CM3), IL-7R 1-256 nM as analyte, 1:1 fit, 25 C
[6] = target: human CD127 ECD (human) (UniProt P16871); assay: SPR, BIAcore 3000; antibody captured on anti-human IgG (Fc), CD127 ECD as analyte; the column head says M, but kd/ka gives 1.9e-8 M, so nM is meant
[7] = target: human CD127 ECD (human) (UniProt P16871); assay: SPR, BIAcore 3000; antibody captured on anti-human IgG (Fc), CD127 ECD as analyte; the column head says M, but kd/ka gives 1.5e-8 M, so nM is meant
[8] = target: human CD127 ECD (human) (UniProt P16871); assay: SPR, BIAcore 3000; antibody captured on anti-human IgG (Fc), CD127 ECD as analyte; the column head says M, but kd/ka gives 1.7e-8 M, so nM is meant
[9] = target: human CD127 ECD (human) (UniProt P16871); assay: SPR, BIAcore 3000; antibody captured on anti-human IgG (Fc), CD127 ECD as analyte; the column head says M, but kd/ka gives 2.8e-8 M, so nM is meant

B1: 1A11 H3L6 (antibody, V domains shown)
VH: QVQLVQSGAEVKKPGASVKVSCKASGYTFTGYTMNWVRQAPGQGLEWMGLINPYNGVTSYNQKFKGRVTLTRDTSISTAYMELSRLRSDDTAVYYCARGDGNYWYFDVWGQGTTVTVSS
VL: EIVLTQSPATLSLSPGERATLSCSASSSVTYMHWYQQKPGQAPRPWIYEISKLASGVPARFSGSGSGTDYTLTISSLEPEDFAVYYCQEWNYPYTFGGGTKVEIK
**Q.** Which results are given for B1?
**A.** Kd [1]: 155 nM; koff [1]: 0.00282 s⁻¹; kon [1]: 18200 M⁻¹ s⁻¹

B2: BPC4401 (antibody, V domains shown)
VH: B1 VH with F106H
VL: B1 VL with W46L, V57I, Y70F
**Q.** How did the IC50 [2] turn out when B2 was run?
**A.** Its IC50 is 14.9 nM and 15.2 nM.

**Q.** And the IC50 [3]?
**A.** Its IC50 is 14.8 nM.

**Q.** What about the Kd [4] of the same binder?
**A.** Its Kd is 0.582 nM.

**Q.** What about the koff [4] of the same binder?
**A.** The koff was 0.000196 s⁻¹.

**Q.** What about the kon [4] of the same binder?
**A.** The kon was 337000 M⁻¹ s⁻¹.

**Q.** What about the Kd [5] of the same binder?
**A.** The Kd was 0.034 nM.

**Q.** What about the koff [5] of the same binder?
**A.** The koff was 3.06e-05 s⁻¹.

**Q.** And the kon [5]?
**A.** The kon was 910000 M⁻¹ s⁻¹.

B3: BPC4402 (antibody, V domains shown)
VH: B1 VH with F106I
VL: B1 VL with W46L, V57I, Y70F
**Q.** What does the source list for B3?
**A.** IC50 [3]: 15.2 nM; Kd [4]: 0.668 nM; koff [4]: 0.0002 s⁻¹; kon [4]: 300000 M⁻¹ s⁻¹; Kd [5]: 0.04 nM; koff [5]: 3.32e-05 s⁻¹; kon [5]: 826000 M⁻¹ s⁻¹

B4: 1A11 H3L5 (antibody, V domains shown)
VH: B1 VH
VL: B1 VL with V57I
**Q.** For B4, which Kd [1] is on record?
**A.** Its Kd is 207 nM.

**Q.** And the koff [1]?
**A.** The koff was 0.00607 s⁻¹.

**Q.** What about the kon [1] of the same binder?
**A.** Its kon is 29400 M⁻¹ s⁻¹.

B5: 6A3 H4-61_6L27 (antibody, V domains shown)
VH: QVQLQESGPGLVKPSETLSLTCTVSGYSVSTDYAWNWIRQPPGKGLEWIGYIFYSGSTTYTPSLKSRVTISRDTSKNQFSLKLSSVTAADTAVYYCARGGYDVNYFDYWGQGTTVTVSS
VL: DIQMLQSPSSLSASVGDRVTITCLASQTIGYWLAWYQQKPGKAPKLLIYAATRLADGVPSRFSGSGSGTMFTLTISSLQPEDFATYYCQQFFSYPWTFGGGTKVEIK
**Q.** Which results are given for B5?
**A.** koff [1]: 0.000299 s⁻¹; kon [1]: 16000 M⁻¹ s⁻¹; Kd [6]: 19 nM

B6: 6A3 H4-61_8L27 (antibody, V domains shown)
VH: B5 VH with S30T, V68I
VL: B5 VL
**Q.** With B6 as the binder, how does the Kd [7] read?
**A.** The Kd was 15 nM.

**Q.** What about the koff [1] of the same binder?
**A.** The koff was 0.00037 s⁻¹.

**Q.** What about the kon [1] of the same binder?
**A.** Its kon is 24300 M⁻¹ s⁻¹.

B7: 6A3 H4-61_9L27 (antibody, V domains shown)
VH: B5 VH with S30T, I49M, V68I
VL: B5 VL
**Q.** With B7 as the binder, how does the koff [1] read?
**A.** The koff was 0.00122 s⁻¹.

**Q.** What about the kon [1] of the same binder?
**A.** Its kon is 69900 M⁻¹ s⁻¹.

**Q.** And the Kd [8]?
**A.** The Kd was 18 nM.

B8: 6A3 H4-61_7L27 (antibody, V domains shown)
VH: B5 VH with S30T
VL: B5 VL
**Q.** Which Kd [9] does the source give for B8 here?
**A.** Its Kd is 28 nM.

**Q.** What about the koff [1] of the same binder?
**A.** Its koff is 0.00104 s⁻¹.

**Q.** And the kon [1]?
**A.** Its kon is 37700 M⁻¹ s⁻¹.

B9: 1A11 Chimera (antibody, human IgG1, V domains shown)
VH: EVQLQQSGPELLKPGASMKISCKASGYSFTGYTMNWVKQSHGKNLEWIGLINPYNGVTSYNQKFKGKATLTVAKSSSTAYMELLSLTSEDSAVYYCARGDGNYWYFDVWGAGTTVTVSS
VL: EIVLTQSPAITAASLGQKVTITCSASSSVTYMHWYQQKSGTSPKPWIYEISKLASGVPVRFSGSGSGTSYSLTISSMEAEDAAIYYCQEWNYPYTFGGGTKLEIK
**Q.** For B9, which Kd [1] is on record?
**A.** Its Kd is 3.22 nM.

**Q.** And the koff [1]?
**A.** Its koff is 0.000298 s⁻¹.

**Q.** What about the kon [1] of the same binder?
**A.** The kon was 92600 M⁻¹ s⁻¹.
